According to doi:10.1101/2021.05.25.445586:
Read-outs that look alike come from different tables or passages of the source.

What was measured:
[1] = target: mouse WT-RELN (Reelin), full-length (mouse) (UniProt Q60841); test: non-reducing SDS-PAGE with immunoblot
[2] = target: mouse WT-RELN (Reelin), full-length (mouse) (UniProt Q60841); test: non-reducing SDS-PAGE with immunoblot; remark: listed apart in the source

“mouse WT-RELN (Reelin), full-length, Q60841 27-3461” was tested, and the stoichiometry N [1] was 2 and the stoichiometry N [2] was 2.
